From the supplement of paper PMC9112550, “Optimization of the antimicrobial peptide Bac7 by deep mutational scanning” (BMC Biology, 2022)

The sequences below were run on Escherichia coli TOP10 (assay: shrunken log2 fold change of peptide-encoding DNA abundance (4.5 h post-induction vs induction); higher = less antimicrobial activity (less host growth inhibition)). Conditions: time post-induction: 4.5 h; library: site-saturation at positions 5, 18, 19, 20.
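Also: peptides expressed intracellularly from a pBAD plasmid library in pooled LB shake-flask culture, induced with 0.3% L-arabinose, DNA abundance read by NGS, three biological replicates, DESeq2 with apeglm shrinkage.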

In order of rising “shrunken log2 fold change” value:
1. RRIRNRPPRLPRPRPRPLTHPRP  -0.566
2. RRIRNRPPRLPRPRPRPNNIPRP  -0.551
3. RRIRYRPPRLPRPRPRPMTHPRP  -0.348
4. RRIRHRPPRLPRPRPRPQTSPRP  -0.264
5. RRIRMRPPRLPRPRPRPCCTPRP  -0.229
6. RRIRSRPPRLPRPRPRPQHRPRP  -0.222
7. RRIRHRPPRLPRPRPRPPCDPRP  -0.22
8. RRIRCRPPRLPRPRPRPHLPPRP  -0.195
9. RRIRHRPPRLPRPRPRPPTTPRP  -0.175
10. RRIRKRPPRLPRPRPRPCRQPRP  -0.166
11. RRIRSRPPRLPRPRPRPLDLPRP  -0.154
12. RRIRIRPPRLPRPRPRPTLGPRP  -0.139
13. RRIRVRPPRLPRPRPRPTVPPRP  -0.138
14. RRIRPRPPRLPRPRPRPSYVPRP  -0.127
15. RRIRKRPPRLPRPRPRPQCYPRP  -0.114
16. RRIRERPPRLPRPRPRPHFVPRP  -0.0987
17. RRIRPRPPRLPRPRPRPWALPRP  -0.0895
18. RRIRLRPPRLPRPRPRPACQPRP  -0.0858
19. RRIRNRPPRLPRPRPRPDQIPRP  -0.0823
20. RRIRNRPPRLPRPRPRPKFPPRP  -0.0759
21. RRIRDRPPRLPRPRPRPHPHPRP  -0.0722
22. RRIRWRPPRLPRPRPRPNWSPRP  -0.0695
23. RRIRERPPRLPRPRPRPFQFPRP  -0.062
24. RRIRYRPPRLPRPRPRPNKQPRP  -0.0515
25. RRIRDRPPRLPRPRPRPWHQPRP  -0.0511
26. RRIRCRPPRLPRPRPRPSEEPRP  -0.0443
27. RRIRRRPPRLPRPRPRPDEPPRP  -0.0328
28. RRIRNRPPRLPRPRPRPKGSPRP  -0.0293
29. RRIRHRPPRLPRPRPRPWFDPRP  -0.0263
30. RRIRKRPPRLPRPRPRPARKPRP  -0.0215
31. RRIRKRPPRLPRPRPRPSLPPRP  -0.0153
32. RRIRERPPRLPRPRPRPCSYPRP  -0.0141
33. RRIRNRPPRLPRPRPRPFENPRP  -0.0135
34. RRIRMRPPRLPRPRPRPWKIPRP  -0.0114
35. RRIRWRPPRLPRPRPRPHEKPRP  -0.00914
36. RRIRYRPPRLPRPRPRPYHCPRP  -0.00776
37. RRIRTRPPRLPRPRPRPMHHPRP  -0.00407
38. RRIRARPPRLPRPRPRPDLYPRP  0.00132
39. RRIRPRPPRLPRPRPRPVLLPRP  0.00267
40. RRIRDRPPRLPRPRPRPHSEPRP  0.00449
41. RRIRKRPPRLPRPRPRPPKTPRP  0.0147
42. RRIRIRPPRLPRPRPRPDSVPRP  0.0234
43. RRIRARPPRLPRPRPRPKVTPRP  0.0237
44. RRIRNRPPRLPRPRPRPMMYPRP  0.025
45. RRIRWRPPRLPRPRPRPIQDPRP  0.0265
46. RRIRDRPPRLPRPRPRPKEHPRP  0.0267
47. RRIRMRPPRLPRPRPRPWVHPRP  0.031
48. RRIRMRPPRLPRPRPRPMPGPRP  0.0377
49. RRIRIRPPRLPRPRPRPMSVPRP  0.0466
50. RRIRLRPPRLPRPRPRPWMQPRP  0.0547
51. RRIRIRPPRLPRPRPRPTRLPRP  0.0583
52. RRIRTRPPRLPRPRPRPEPHPRP  0.0668
53. RRIRRRPPRLPRPRPRPWRIPRP  0.0818
54. RRIRMRPPRLPRPRPRPGHEPRP  0.086
55. RRIRKRPPRLPRPRPRPWDMPRP  0.142
56. RRIRFRPPRLPRPRPRPSQCPRP  0.153
57. RRIRWRPPRLPRPRPRPAFHPRP  0.153
58. RRIRNRPPRLPRPRPRPKQQPRP  0.163
59. RRIRPRPPRLPRPRPRPQNHPRP  0.181
60. RRIRHRPPRLPRPRPRPTADPRP  0.202
61. RRIRHRPPRLPRPRPRPQKQPRP  0.219
62. RRIRWRPPRLPRPRPRPTYWPRP  0.235
63. RRIRWRPPRLPRPRPRPERLPRP  0.277
64. RRIRKRPPRLPRPRPRPGKRPRP  0.285
65. RRIRARPPRLPRPRPRPSHAPRP  0.333
66. RRIRCRPPRLPRPRPRPAWQPRP  0.359
67. RRIRWRPPRLPRPRPRPAWTPRP  0.428
68. RRIRMRPPRLPRPRPRPFRAPRP  0.452
69. RRIRARPPRLPRPRPRPKVHPRP  0.491
70. RRIRTRPPRLPRPRPRPRWWPRP  0.533
71. RRIRRRPPRLPRPRPRPPALPRP  0.635
72. RRIRLRPPRLPRPRPRPLAQPRP  0.73
73. RRIRCRPPRLPRPRPRPRGAPRP  0.766
74. RRIRGRPPRLPRPRPRPAHAPRP  1.06
75. RRIRMRPPRLPRPRPRPPRYPRP  1.71
